Source: article PMC9482650, “Quantitative fragmentomics allow affinity mapping of interactomes” (Nature Communications, 2022)

Columns and labels:
Assay in all cases: holdup assay
Design in all cases: key: below the threshold = too weak to quantify, mostly under pKd 3.1 to 4
[1] = target: T1, DFNB31_1, Q9P202
T1 sequence (Q9P202 135-233, limits assumed, looked up): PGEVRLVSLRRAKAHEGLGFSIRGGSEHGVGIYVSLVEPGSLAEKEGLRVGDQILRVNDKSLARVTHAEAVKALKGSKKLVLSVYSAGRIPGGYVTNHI

[2] = target: DLG1_2, Q12959
[3] = target: DLG4_2, P78352
Sequence of DLG4_2, P78352 (P78352 155-259): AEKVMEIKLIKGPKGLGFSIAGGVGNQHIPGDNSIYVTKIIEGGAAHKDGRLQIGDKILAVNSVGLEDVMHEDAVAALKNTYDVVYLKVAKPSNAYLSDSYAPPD

[4] = target: FRMPD2_1, Q68DX3
Sequence of FRMPD2_1, Q68DX3 (Q68DX3 770-861): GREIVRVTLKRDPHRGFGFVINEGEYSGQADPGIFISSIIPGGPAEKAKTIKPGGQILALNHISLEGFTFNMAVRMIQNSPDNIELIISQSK

[5] = target: FRMPD2_3, Q68DX3
Sequence of FRMPD2_3, Q68DX3 (Q68DX3 1073-1166): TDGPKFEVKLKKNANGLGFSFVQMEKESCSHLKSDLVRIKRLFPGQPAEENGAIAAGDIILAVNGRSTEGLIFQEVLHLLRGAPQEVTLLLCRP

[6] = target: FRMPD3, Q5JV73
Sequence of FRMPD3, Q5JV73 (Q5JV73 12-100): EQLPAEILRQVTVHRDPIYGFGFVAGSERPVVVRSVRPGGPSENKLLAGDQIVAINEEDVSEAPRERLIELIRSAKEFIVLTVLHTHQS

[7] = target: FRMPD4, Q14CM0
Sequence of FRMPD4, Q14CM0 (Q14CM0 67-160): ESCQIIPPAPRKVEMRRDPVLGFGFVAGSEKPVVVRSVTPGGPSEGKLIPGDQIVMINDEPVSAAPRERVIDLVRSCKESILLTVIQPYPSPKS

[8] = target: HTRA2, O43464
Sequence of HTRA2, O43464 (O43464 355-458): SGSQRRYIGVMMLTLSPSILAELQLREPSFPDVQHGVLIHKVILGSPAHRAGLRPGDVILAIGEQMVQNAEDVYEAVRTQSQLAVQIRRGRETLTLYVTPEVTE

[9] = target: IL16_3, Q14005
Sequence of IL16_3, Q14005 (Q14005 1107-1207): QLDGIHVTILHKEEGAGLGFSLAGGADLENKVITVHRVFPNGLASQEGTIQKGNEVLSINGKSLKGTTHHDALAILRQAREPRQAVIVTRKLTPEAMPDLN

[10] = target: Inadl_10, Q8NI35
Sequence of Inadl_10, Q8NI35 (Q8NI35 1673-1763): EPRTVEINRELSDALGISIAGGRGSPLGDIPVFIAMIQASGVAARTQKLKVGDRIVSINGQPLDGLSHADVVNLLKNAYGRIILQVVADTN

[11] = target: Inadl_5, Q8NI35
Sequence of Inadl_5, Q8NI35 (Q8NI35 673-780): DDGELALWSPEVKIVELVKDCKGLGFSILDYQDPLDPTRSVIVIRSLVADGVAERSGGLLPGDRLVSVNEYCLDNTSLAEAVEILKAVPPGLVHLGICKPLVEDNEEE

[12] = target: Inadl_8, Q8NI35
Sequence of Inadl_8, Q8NI35 (Q8NI35 1425-1530): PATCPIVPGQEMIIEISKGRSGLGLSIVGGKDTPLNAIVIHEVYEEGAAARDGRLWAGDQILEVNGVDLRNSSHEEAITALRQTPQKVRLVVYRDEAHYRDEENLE

[13] = target: T2, LIN7C, Q9NUP9
T2 sequence (Q9NUP9 88-185, limits assumed, looked up): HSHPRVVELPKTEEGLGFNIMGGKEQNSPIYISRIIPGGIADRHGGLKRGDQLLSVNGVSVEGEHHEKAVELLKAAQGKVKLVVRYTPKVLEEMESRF

[14] = target: LNX1_1, Q8TBB1
Sequence of LNX1_1, Q8TBB1 (Q8TBB1 261-371): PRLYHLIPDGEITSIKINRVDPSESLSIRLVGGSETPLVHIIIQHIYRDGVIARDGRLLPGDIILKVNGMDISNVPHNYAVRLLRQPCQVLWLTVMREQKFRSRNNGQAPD

[15] = target: T3, LRRC7, Q96NW7
T3 sequence (Q96NW7 1440-1537, limits assumed, looked up): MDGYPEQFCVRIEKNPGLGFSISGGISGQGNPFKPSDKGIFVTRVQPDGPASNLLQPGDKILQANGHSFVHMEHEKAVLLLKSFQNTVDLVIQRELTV

[16] = target: MAGI1_1, Q96QZ7
Sequence of MAGI1_1, Q96QZ7 (Q96QZ7 1-106): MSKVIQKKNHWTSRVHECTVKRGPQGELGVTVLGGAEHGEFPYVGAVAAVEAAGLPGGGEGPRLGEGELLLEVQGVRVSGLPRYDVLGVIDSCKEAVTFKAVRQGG

[17] = target: MAGI3_2, Q5TCQ9
Sequence of MAGI3_2, Q5TCQ9 (Q5TCQ9 398-503): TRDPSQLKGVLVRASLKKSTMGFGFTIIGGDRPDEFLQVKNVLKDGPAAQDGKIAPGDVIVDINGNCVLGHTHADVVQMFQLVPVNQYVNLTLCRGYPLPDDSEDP

[18] = target: T4, MPDZ_12, O75970
T4 sequence (O75970 1857-1958, limits assumed, looked up): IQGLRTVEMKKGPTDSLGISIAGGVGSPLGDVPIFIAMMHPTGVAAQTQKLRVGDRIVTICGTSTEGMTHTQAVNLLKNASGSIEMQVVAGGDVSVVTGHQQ

[19] = target: NHERF4_1, Q86UT5-2
Sequence of NHERF4_1, Q86UT5-2 (Q86UT5 other isoform, or with tags, fused parts or gaps): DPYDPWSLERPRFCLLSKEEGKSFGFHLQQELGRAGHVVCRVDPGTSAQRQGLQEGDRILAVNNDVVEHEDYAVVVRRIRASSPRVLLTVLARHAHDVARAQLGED

[20] = target: PDZRN4_1, Q6ZMN7
Sequence of PDZRN4_1, Q6ZMN7 (Q6ZMN7 213-318): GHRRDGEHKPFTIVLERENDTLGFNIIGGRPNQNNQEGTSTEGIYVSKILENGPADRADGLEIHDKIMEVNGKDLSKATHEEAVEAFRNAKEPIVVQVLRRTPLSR

[21] = target: PICK1, Q9NRD5
Sequence of PICK1, Q9NRD5 (Q9NRD5 17-115): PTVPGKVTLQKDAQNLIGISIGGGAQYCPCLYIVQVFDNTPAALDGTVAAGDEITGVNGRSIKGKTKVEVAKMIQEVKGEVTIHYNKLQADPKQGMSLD

[22] = target: T5, RHPN1, Q8TCX5
T5 sequence (Q8TCX5 508-602, limits assumed, looked up): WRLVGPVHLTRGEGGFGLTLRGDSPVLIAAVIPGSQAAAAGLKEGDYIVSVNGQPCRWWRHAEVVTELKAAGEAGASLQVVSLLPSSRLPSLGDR

[23] = target: SCRIB_2, Q14160
Sequence of SCRIB_2, Q14160 (Q14160 857-960): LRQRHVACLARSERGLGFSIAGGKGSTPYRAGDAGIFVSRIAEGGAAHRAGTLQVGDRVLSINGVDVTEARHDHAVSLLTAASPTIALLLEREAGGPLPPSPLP

[24] = target: T6, SHANK1, Q9Y566
T6 sequence (Q9Y566 658-767, limits assumed, looked up): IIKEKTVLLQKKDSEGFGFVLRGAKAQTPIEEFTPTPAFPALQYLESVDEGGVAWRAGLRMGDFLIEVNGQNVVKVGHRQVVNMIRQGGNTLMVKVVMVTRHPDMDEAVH

[25] = target: T7, SNTG2, Q9NY99
T7 sequence (Q9NY99 68-166, limits assumed, looked up): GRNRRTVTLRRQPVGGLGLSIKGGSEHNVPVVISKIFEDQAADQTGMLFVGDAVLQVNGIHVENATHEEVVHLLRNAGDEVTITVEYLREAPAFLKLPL

[26] = target: T8, SYNJ2BP, P57105
T8 sequence (P57105 8-110, limits assumed, looked up): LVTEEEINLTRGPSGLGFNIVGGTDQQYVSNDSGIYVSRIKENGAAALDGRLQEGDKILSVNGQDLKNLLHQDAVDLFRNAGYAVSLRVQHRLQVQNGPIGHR

[27] = target: TJP2_1, Q9UDY2
Sequence of TJP2_1, Q9UDY2 (Q9UDY2 24-128): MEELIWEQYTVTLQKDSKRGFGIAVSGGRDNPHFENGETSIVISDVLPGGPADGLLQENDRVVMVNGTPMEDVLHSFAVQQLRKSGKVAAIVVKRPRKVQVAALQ

[28] = target: T9, TJP3_3, O95049
T9 sequence (O95049 375-456, limits assumed, looked up): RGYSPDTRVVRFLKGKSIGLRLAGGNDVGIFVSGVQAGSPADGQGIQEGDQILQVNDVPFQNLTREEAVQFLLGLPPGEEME

[29] = plain residues with an end cap or a label only (N-terminal biotin on a linker: ado-ado)
[30] = plain residues with an end cap or a label only (N-terminal biotin on a linker: (peg)3)
[31] = plain residues with an end cap or a label only (N-terminal biotin on a linker: ahx)

Sequence of DLG1_2, Q12959 (Q12959 314-412): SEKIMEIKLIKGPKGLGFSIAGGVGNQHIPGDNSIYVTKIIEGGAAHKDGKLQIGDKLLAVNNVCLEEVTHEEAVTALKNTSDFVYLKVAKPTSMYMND

**Q.** Which results are given for NTANRRTTPV [CACNG2, Q9Y698]?
**A.** pKd [1, 29]: 3.76; pKd [2, 29]: 5.01; pKd [3, 29]: 4.89; pKd [4, 29]: below the threshold; pKd [5, 29]: below the threshold; pKd [6, 29]: below the threshold; pKd [7, 29]: below the threshold; pKd [8, 29]: below the threshold; pKd [9, 29]: below the threshold; pKd [10, 29]: below the threshold; pKd [11, 29]: below the threshold; pKd [12, 29]: 4.23; pKd [13, 29]: below the threshold; pKd [14, 29]: below the threshold; pKd [15, 29]: below the threshold; pKd [16, 29]: below the threshold; pKd [17, 29]: 5.16; pKd [18, 29]: below the threshold; pKd [19, 29]: below the threshold; pKd [20, 29]: below the threshold; pKd [21, 29]: below the threshold; pKd [22, 29]: below the threshold; pKd [23, 29]: below the threshold; pKd [24, 29]: below the threshold; pKd [25, 29]: below the threshold; pKd [26, 29]: 5.08; pKd [27, 29]: 3.9; pKd [28, 29]: below the threshold

**Q.** What does the source list for NTLNRKTTPV [CACNG8, Q8WXS5]?
**A.** pKd [1, 29]: 3.95; pKd [2, 29]: 5.05; pKd [3, 29]: 4.94; pKd [4, 29]: below the threshold; pKd [5, 29]: below the threshold; pKd [6, 29]: below the threshold; pKd [7, 29]: below the threshold; pKd [8, 29]: below the threshold; pKd [9, 29]: below the threshold; pKd [10, 29]: below the threshold; pKd [11, 29]: below the threshold; pKd [12, 29]: 4.2; pKd [13, 29]: below the threshold; pKd [14, 29]: 3.66; pKd [15, 29]: below the threshold; pKd [16, 29]: below the threshold; pKd [17, 29]: 5.05; pKd [18, 29]: below the threshold; pKd [19, 29]: 3.67; pKd [20, 29]: 3.63; pKd [21, 29]: 4.17; pKd [22, 29]: below the threshold; pKd [23, 29]: 3.62; pKd [24, 29]: below the threshold; pKd [25, 29]: 3.75; pKd [26, 29]: 4.85; pKd [27, 29]: 4.05; pKd [28, 29]: below the threshold

**Q.** For RRRRSQSRESQC [HBV-HBc, P03193], which pKd [1, 30] is on record?
**A.** 3.92

**Q.** What about the pKd [2, 30] of the same binder?
**A.** 4.58

**Q.** What about the pKd [3, 30] of the same binder?
**A.** 4.3

**Q.** And the pKd [4, 30]?
**A.** below the threshold

**Q.** And the pKd [5, 30]?
**A.** below the threshold

**Q.** What about the pKd [6, 30] of the same binder?
**A.** below the threshold

**Q.** And the pKd [7, 30]?
**A.** below the threshold

**Q.** What about the pKd [8, 30] of the same binder?
**A.** below the threshold

**Q.** And the pKd [9, 30]?
**A.** below the threshold

**Q.** And the pKd [10, 30]?
**A.** below the threshold

**Q.** And the pKd [11, 30]?
**A.** below the threshold

**Q.** What about the pKd [12, 30] of the same binder?
**A.** 3.58

**Q.** And the pKd [13, 30]?
**A.** 3.66

**Q.** And the pKd [14, 30]?
**A.** below the threshold

**Q.** What about the pKd [15, 30] of the same binder?
**A.** below the threshold

**Q.** What about the pKd [16, 30] of the same binder?
**A.** below the threshold

**Q.** What about the pKd [17, 30] of the same binder?
**A.** 4.64

**Q.** And the pKd [18, 30]?
**A.** below the threshold

**Q.** What about the pKd [19, 30] of the same binder?
**A.** 3.86

**Q.** And the pKd [20, 30]?
**A.** below the threshold

**Q.** And the pKd [21, 30]?
**A.** 4.05

**Q.** What about the pKd [22, 30] of the same binder?
**A.** below the threshold

**Q.** What about the pKd [23, 30] of the same binder?
**A.** below the threshold

**Q.** What about the pKd [24, 30] of the same binder?
**A.** below the threshold

**Q.** What about the pKd [25, 30] of the same binder?
**A.** 4.21

**Q.** And the pKd [26, 30]?
**A.** 4.59

**Q.** What about the pKd [27, 30] of the same binder?
**A.** below the threshold

**Q.** What about the pKd [28, 30] of the same binder?
**A.** below the threshold

**Q.** With TQKFRASTAL [FRMPD1, Q5SYB0] as the binder, how does the pKd [1, 31] read?
**A.** below the threshold

**Q.** And the pKd [2, 31]?
**A.** 3.62

**Q.** What about the pKd [3, 31] of the same binder?
**A.** 3.55

**Q.** And the pKd [4, 31]?
**A.** 3.77

**Q.** And the pKd [5, 31]?
**A.** below the threshold

**Q.** What about the pKd [6, 31] of the same binder?
**A.** below the threshold

**Q.** What about the pKd [7, 31] of the same binder?
**A.** 3.73

**Q.** What about the pKd [8, 31] of the same binder?
**A.** below the threshold

**Q.** What about the pKd [9, 31] of the same binder?
**A.** below the threshold

**Q.** And the pKd [10, 31]?
**A.** 3.61

**Q.** What about the pKd [11, 31] of the same binder?
**A.** below the threshold

**Q.** And the pKd [12, 31]?
**A.** below the threshold

**Q.** And the pKd [13, 31]?
**A.** 3.52

**Q.** What about the pKd [14, 31] of the same binder?
**A.** below the threshold

**Q.** And the pKd [15, 31]?
**A.** below the threshold

**Q.** What about the pKd [16, 31] of the same binder?
**A.** below the threshold

**Q.** And the pKd [17, 31]?
**A.** 4.28

**Q.** And the pKd [18, 31]?
**A.** below the threshold

**Q.** And the pKd [19, 31]?
**A.** 4.47

**Q.** What about the pKd [20, 31] of the same binder?
**A.** 4.17

**Q.** What about the pKd [21, 31] of the same binder?
**A.** below the threshold

**Q.** What about the pKd [22, 31] of the same binder?
**A.** 3.79

**Q.** What about the pKd [23, 31] of the same binder?
**A.** below the threshold

**Q.** And the pKd [24, 31]?
**A.** 4.62

**Q.** And the pKd [25, 31]?
**A.** below the threshold

**Q.** What about the pKd [26, 31] of the same binder?
**A.** 4.26

**Q.** What about the pKd [27, 31] of the same binder?
**A.** below the threshold

**Q.** What about the pKd [28, 31] of the same binder?
**A.** below the threshold
